This assay concerns the target Ribosomal protein eL5/uL18 (H. sapiens rpL5) (H. sapiens, UniProt P46777 1-297). The experiment in a line: NMR titration; 15N-1H HSQC at 25 °C, 35 uM 15N WT N29+P1 or 80 uM KRK→AAA N29+P1 with unlabelled rpL5 at a 1:1 ratio, phosphate buffer pH 6.4 with 5% v/v glycerol; chemical shift perturbations and peak disappearance. As to conditions: both partners purified.

Where no end group is shown, it is not given here.

B1: DCC C-tail N29+P1 protein (residues 1121-1167) (domain or fragment)
chain: CTRRSSAQQRKKRATHSAGKRKGSQKDLRPPDLWIHHEEMEMKNIEK
modifications: also: Cy5 label via maleimide (MST only), 15N-labelled (NMR only)
notes: Residues 1121-1122 were included to give a terminal cysteine for labelling; also called WT N29+P1; DCC N29-P1; source: E. coli LOBSTR-BL21(DE3), purified (Ni-NTA, Superdex 75)
Turning to B1, the binding result is on record as “binds”.

Source of the values: PMC12556795, “Intrinsically disordered cytoplasmic tail in netrin receptor DCC binds the large ribosomal subunit to inhibit translation” (The Journal of Biological Chemistry, 2025).
